One block for each compound: values may come before it.
Assays:
[1] = system: C/C=C(\C)C(=O)SCCNC(=O)CCNC(=O)[C@H](O)C(C)(C)COP(=O)(O)OP(=O)(O)OC[C@H]1O[C@@H](n2cnc3c(N)ncnc32)[C@H](O)[C@@H]1OP(=O)(O)O; assay: steady-state kinetics, LC-MS product analysis; assay type: biochemical, Atropa belladonna; details: co-substrate 3β-tropanol, 50 mM glycine-NaOH pH 8.6, 30 °C
Text: (§1) steady-state kinetics, LC-MS product analysis on TS (3β-tigloyloxytropane synthase; AbTS)

[2] = system: CC(C)(COP(=O)(O)OP(=O)(O)OC[C@H]1O[C@@H](n2cnc3c(N)ncnc32)[C@H](O)[C@@H]1OP(=O)(O)O)[C@@H](O)C(=O)NCCC(=O)NCCSC(=O)c1ccccc1; assay: steady-state kinetics, LC-MS product analysis; assay type: biochemical, Atropa belladonna; details: co-substrate 3β-tropanol, 50 mM glycine-NaOH pH 8.6, 30 °C
Text: as §1

[3] = molecular target: T1, TS (3β-tigloyloxytropane synthase; AbTS) (Atropa belladonna, UniProt A0AAF1BX09); assay: steady-state kinetics, LC-MS product analysis; assay type: biochemical; details: co-substrate 3β-tropanol; 50 mM glycine-NaOH pH 8.6, 30 °C
T1 construct: full-length codon-optimised CDS (TSopt) in pMAL-c5x, N-terminal MBP tag (cleavage not mentioned), E. coli BL21 (DE3), amylose resin
Text: as §1

[4] = molecular target: T2, PcICS (isobutyryl CoA synthetase) (Pseudomonas chlororaphis, UniProt Q5CD72); assay: enzyme assay, MS detection of tigloyl-CoA; assay type: biochemical
T2 construct: gene acsA; purified recombinant protein; tag and host for purification not described in main text

[5] = system: CC(=O)SCCNC(=O)CCNC(=O)[C@H](O)C(C)(C)COP(=O)(O)OP(=O)(O)OC[C@H]1O[C@@H](n2cnc3c(N)ncnc32)[C@H](O)[C@@H]1OP(=O)(O)O; assay: steady-state kinetics, LC-MS product analysis; assay type: biochemical, Atropa belladonna; details: co-substrate 3β-tropanol, 50 mM glycine-NaOH pH 8.6, 30 °C
Text: as §1

[6] = system: CN1[C@@H]2CC[C@H]1C[C@H](O)C2; assay: steady-state kinetics, LC-MS product analysis; assay type: biochemical, Atropa belladonna; details: acyl donor tigloyl-CoA, 50 mM glycine-NaOH pH 8.6, 30 °C
Text: as §1

Compound: TS (3β-tigloyloxytropane synthase; AbTS) (Atropa belladonna; F46I/S40T)
Km [1]: 0.15 ± 0.02 mM
kcat [1]: 2.27 ± 0.1 s⁻¹
kcat/Km [1]: 14800 ± 1370 M⁻¹ s⁻¹
Km [2]: 0.26 ± 0.08 mM
kcat [2]: 0.08 ± 0.008 s⁻¹
kcat/Km [2]: 305 ± 54.1 M⁻¹ s⁻¹

Km [3]: 920 ± 580 µM
Compound: CC(C)(COP(=O)(O)OP(=O)(O)OC[C@H]1O[C@@H](n2cnc3c(N)ncnc32)[C@H](O)[C@@H]1OP(=O)(O)O)[C@@H](O)C(=O)NCCC(=O)NCCSC(=O)c1ccccc1 [benzoyl-CoA]

Compound: CC(C)(COP(=O)(O)OP(=O)(O)OC[C@H]1O[C@@H](n2cnc3c(N)ncnc32)[C@H](O)[C@@H]1OP(=O)(O)O)[C@@H](O)C(=O)NCCC(=O)NCCS [CoA]
enzyme assay, MS detection of tigloyl-CoA ([4]; co-substrate tiglic acid): purified PcICS catalyzed the synthesis of tigloyl-CoA from CoA and tiglic acid

Compound: TS (3β-tigloyloxytropane synthase; AbTS) (Atropa belladonna; F46I)
Km [1]: 0.41 ± 0.11 mM
kcat [1]: 1.42 ± 0.17 s⁻¹
kcat/Km [1]: 3590 ± 570 M⁻¹ s⁻¹
Km [5]: 0.35 ± 0.12 mM
kcat [5]: 0.005 ± 0.0008 s⁻¹
kcat/Km [5]: 16.2 ± 3.42 M⁻¹ s⁻¹
Km [2]: 0.37 ± 0.09 mM
kcat [2]: 0.04 ± 0.004 s⁻¹
kcat/Km [2]: 99.3 ± 13.3 M⁻¹ s⁻¹
Km [6]: 0.32 ± 0.06 mM
kcat [6]: 1.44 ± 0.09 s⁻¹
kcat/Km [6]: 4550 ± 594 M⁻¹ s⁻¹

Km [3]: 90 ± 20 µM
Compound: CC(=O)SCCNC(=O)CCNC(=O)[C@H](O)C(C)(C)COP(=O)(O)OP(=O)(O)OC[C@H]1O[C@@H](n2cnc3c(N)ncnc32)[C@H](O)[C@@H]1OP(=O)(O)O [acetyl-CoA]

Compound: TS (3β-tigloyloxytropane synthase; AbTS) (Atropa belladonna)
Km [1]: 0.02 ± 0.004 mM
kcat [1]: 7.38 ± 0.25 s⁻¹
kcat/Km [1]: 338000 ± 49100 M⁻¹ s⁻¹
Km [6]: 0.36 ± 0.05 mM
kcat [6]: 6.84 ± 0.3 s⁻¹
kcat/Km [6]: 19000 ± 1660 M⁻¹ s⁻¹

Compound: C/C=C(\C)C(=O)O [tiglic acid]
enzyme assay, MS detection of tigloyl-CoA ([4]; co-substrate CoA): purified PcICS catalyzed the synthesis of tigloyl-CoA from CoA and tiglic acid

Compound: TS (3β-tigloyloxytropane synthase; AbTS) (Atropa belladonna; S40T)
Km [1]: 0.02 ± 0.003 mM
kcat [1]: 11.4 ± 0.34 s⁻¹
kcat/Km [1]: 572000 ± 72300 M⁻¹ s⁻¹
Km [5]: 0.07 ± 0.01 mM
kcat [5]: 0.09 ± 0.004 s⁻¹
kcat/Km [5]: 1190 ± 155 M⁻¹ s⁻¹
Km [2]: 0.84 ± 0.38 mM
kcat [2]: 0.03 ± 0.006 s⁻¹
kcat/Km [2]: 32.7 ± 6.77 M⁻¹ s⁻¹
Km [6]: 0.32 ± 0.07 mM
kcat [6]: 11.1 ± 0.81 s⁻¹
kcat/Km [6]: 35200 ± 5480 M⁻¹ s⁻¹

Reference: paper PMC11058270, “Discovering a mitochondrion-localized BAHD acyltransferase involved in calystegine biosynthesis and engineering the production of 3β-tigloyloxytropane” (Nature Communications, 2024)
